Results reported in patent US20260125454A1 (SHANGHAI JUNSHI BIOSCIENCES, published 2026).
Changes are numbered by the printed parent chain.

T1: Biotin-huCGRPaSA (human, not fully specified; biotin (position not given))
T1 construct: exact construct ('aSA') not explained; also called Biotin CGRPaSA; full-length (1-37) CGRP
T1 peptide: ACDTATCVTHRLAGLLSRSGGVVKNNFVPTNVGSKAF

B1: hu87 (antibody, V domains shown)
VH: QVQLVQSGAEVKKPGASVKVSCKASGYTFIDFNMHWVRQAPGQRLEWMGYIYPYNADVVYNQDFTNRVTLTVDTSSSTAYMELSSLRSEDTAVYYCAREGLGGYWGQGTLVTVSS
VL: DIVLTQSPDSLAVSLGERATINCQASQNIDGNTYMNWYQQKPGQPPKVLIYSIFNLESGVPDRFSGSGSGTDFTLTISSLQAEDVAVYYCQQSNDYPYTFGQGTKLEIK
notes: 1F5 HC-5/2B8 LC2-1
B2: hu100 (antibody, V domains shown)
VH: B1 VH with I30T, F32Y, I51V, A56G, D57G, V58S, V59A, D63K, T65K, N66S
VL: B1 VL
notes: 2A2 HC-1/2B8 LC2-1
B3: hu226 (antibody, V domains shown)
VH: QVQLVQSGAEVKKPGASVKVSCKASGYTFTGYTMNWVRQAPGQRLEWMGLINPYIGNTHYNQKFKDRVTFTVDRSSSTAYMELSSLRSEDTAVYYCARELDSGFDYWGQGTLVTVSS
VL: DVVMTQSPLSLPVTLGQPASISCRSSQNIVHSNGDTYLEWYQQRPGQSPRLLIYKVSNRFSGVPDRFSGSGSGTDFTLKISRVEAEDVGVYYCYQGSHVPWTFGQGTKLEIK
notes: 3C1 HC-2/3C1 LC-1
B4: hu223 (antibody, V domains shown)
VH: B3 VH with T28S
VL: B3 VL with S7T, P12S, L15P, Q42L, R44K, R50Q
notes: 3C1 HC-1/3C1 LC-2
B5: hu230 (antibody, V domains shown)
VH: QVQLVQSGSELKKPGASVKVSCKASGYTFTGYTMNWVRQAPGQGLEWMGLINPYIGNTHYNQKFKDRFVFSVDRSSSTAYLQISSLKAEDTAVYYCARELDSGFDYWGQGTLVTVSS
VL: B3 VL
notes: 3C1 HC-3/3C1 LC-1
B6: hu234 (antibody, V domains shown)
VH: B3 VH with R44G, S85R, E89D
VL: B3 VL
notes: 3C1 HC-4/3C1 LC-1
B7: hu227 (antibody, V domains shown)
VH: B3 VH
VL: B3 VL with S7T, P12S, L15P, Q42L, R44K, R50Q
notes: 3C1 HC-2/3C1 LC-2
B8: hu222 (antibody, V domains shown)
VH: B3 VH with T28S
VL: B3 VL
notes: 3C1 HC-1/3C1 LC-1
B9: hu71 (antibody, V domains shown)
VH: QVQLVQSGSELKKPGASVKVSCKASGYTFTDFNMHWVRQAPGQGLEWMGYIYPYNGDVVYNQNFTNRFVLSVDSSSSTAYLQISSLKAEDTAVYYCAREGLGGYWGQGTLVTVSS
VL: EIVLTQSPATLSLSPGERATLSCKASQNIDFDGYAYMNWYQHKPGQAPRVLIYSVFNLESGIPARFSGSGSGTDFTLTISSLEPEDFAVYYCQQSHEVPYTFGQGTKLEIK
notes: 1F5 HC-4/1F5 LC1-2
B10: hu66 (antibody, V domains shown)
VH: B9 VH
VL: DIVLTQSPASLAVSPGQRATITCKASQNIDYDGYAYLNWYQQKPGQPPKVLIYSVFNLESGVPARFSGSGSGTDFTLTINPVEANDTANYYCQQSNEFPYTFGQGTKLEIK
notes: 1F5 HC-4/1A2 LC2-1
B11: hu74 (antibody, V domains shown)
VH: B9 VH
VL: B1 VL
notes: 1F5 HC-4/2B8 LC2-1
B12: hu129 (antibody, V domains shown)
VH: QVQLVQSGAEVKKPGASVKVSCKASGYTFTDYNMHWVRQAPGQGLEWMGNIYPYNGGTVYNQKFNNRVTLTVDTSSSTAYMELRSLRSDDTAVYYCAREGLGGYWGQGTLVTVSS
VL: DIVLTQSPDSLAVSLGERATINCKASQNIDYGGYSYMNWYQQKPGQPPKVLIYSVFNLESGVPDRFSGSGSGTDFTLTISSLQAEDVAVYYCQQSNEAPYTFGQGTKLEIK
notes: 2B8 HC1-2/3H10 LC2-1
B13: hu76 (antibody, V domains shown)
VH: B9 VH
VL: B12 VL with G32D, S35T, M37L, V55I, A98V
notes: 1F5 HC-4/3E5 LC-1
B14: hu86 (antibody, V domains shown)
VH: B1 VH
VL: B12 VL with Y31F, G32D, S35A, Q42H, N96H, A98V
notes: 1F5 HC-5/1F5 LC1-4
B15: hu151 (antibody, V domains shown)
VH: B12 VH with A24T, G44R, N50Y, Y52S, V59A, N65K, N66F, R84S, D89E
VL: B12 VL with Y31F, G32D, S35A, Q42H, N96H, A98V
notes: 3E5 HC-1/1F5 LC1-4
B16: hu77 (antibody, V domains shown)
VH: B9 VH
VL: B12 VL
notes: 1F5 HC-4/3H10 LC2-1
B17: hu90 (antibody, V domains shown)
VH: B1 VH
VL: B12 VL
notes: 1F5 HC-5/3H10 LC2-1
B18: hu154 (antibody, V domains shown)
VH: B12 VH with A24T, G44R, N50Y, Y52S, V59A, N65K, N66F, R84S, D89E
VL: B12 VL with G32D, S35T, M37L, V55I, A98V
notes: 3E5 HC-1/3E5 LC-1
B19: hu32 (antibody, V domains shown)
VH: B1 VH with A56G, D63N
VL: B9 VL
notes: 1F5 HC-1/1F5 LC1-2
B20: hu84 (antibody, V domains shown)
VH: B1 VH
VL: B9 VL
notes: 1F5 HC-5/1F5 LC1-2
B21: hu136 (antibody, V domains shown)
VH: B12 VH with G56A, R84S, S85R
VL: B9 VL
notes: 2B8 HC1-3/1F5 LC1-2
B22: hu58 (antibody, V domains shown)
VH: B1 VH with I30T, R44G, A56G, D63N, S84R, E89D
VL: B9 VL
notes: 1F5 HC-3/1F5 LC1-2
B23: hu131 (antibody, V domains shown)
VH: B12 VH with G56A, R84S, S85R
VL: B10 VL
notes: 2B8 HC1-3/1A2 LC2-1
B24: hu145 (antibody, V domains shown)
VH: B12 VH with A24T, G44R, N50Y, Y52S, V59A, N65K, N66F, R84S, D89E
VL: B10 VL with N85D
notes: 3E5 HC-1/1A2 LC2-2
B25: hu193 (antibody, V domains shown)
VH: B1 VH with A24T, I30T, F32Y, Y52S, D57G, V58T, V59A, D63K, T65K, N66F
VL: B12 VL with G32D, S35T, M37L, V55I, A98V
notes: 3E5 HC-4/3E5 LC-1
B26: hu167 (antibody, V domains shown)
VH: B12 VH with G44R, N50Y, Y52S, V59A, N65K, N66F, R84S, D89E
VL: B12 VL with G32D, S35T, M37L, V55I, A98V
notes: 3E5 HC-2/3E5 LC-1
B27: hu45 (antibody, V domains shown)
VH: B1 VH with I30T, A56G, D63N
VL: B9 VL
notes: 1F5 HC-2/1F5 LC1-2

Assays:
[1] = molecular target: T1, Biotin-huCGRPaSA; assay: ELISA, supernatant; relative to chimeric C245
Method in brief: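 Plates coated with biotin-CGRPaSA at 1.0 μg/mL (90 min, 37°C) and blocked with 2% BSA. Humanized antibodies and chimeric C245 reference, 2.5-fold serial dilutions from 1000 ng/mL, bound 60 min at 37°C. Detection by HRP anti-human IgG (Fc), TMB 15 min, read at 450/620 nm.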

[2] = molecular target: CGRP antigen; assay: cell-based or functional assay

| Binder | Relative binding activity, % [1] | IC50 [2] | relative activity (%) vs Ref(TEVA) [2] | relative activity (%) vs C245 [2] |
| --- | --- | --- | --- | --- |
| B1 | 138% | 0.124 µg/mL | 38% |  |
| B2 | 133% | 0.11 µg/mL | 28% |  |
| B3 | 65% | 0.0446 µg/mL |  | 53% |
| B4 | 71% | 0.0353 µg/mL |  | 51% |
| B5 | 64% | 0.0464 µg/mL |  | 56% |
| B6 | 50% | 0.0429 µg/mL |  | 65% |
| B7 | 64% | 0.0368 µg/mL |  | 64% |
| B8 | 65% | 0.039 µg/mL |  | 46% |
| B9 | 120% | 0.0404 µg/mL | 77% |  |
| B10 | 129% | 0.0566 µg/mL | 89% |  |
| B11 | 112% | 0.0739 µg/mL | 58% |  |
| B12 | 117% | 0.088 µg/mL | 39% |  |
| B13 | 112% | 0.0649 µg/mL | 66% |  |
| B14 | 118% | 0.134 µg/mL | 35% |  |
| B15 | 119% | 0.0677 µg/mL | 48% |  |
| B16 | 112% | 0.0778 µg/mL | 55% |  |
| B17 | 102% | 0.058 µg/mL | 53% |  |
| B18 | 121% | 0.0905 µg/mL | 36% |  |
| B19 | 116% | 0.137 µg/mL | 26% |  |
| B20 | 111% | 0.256 µg/mL | 19% |  |
| B21 | 101% | 0.124 µg/mL | 28% |  |
| B22 | 113% | 0.0619 µg/mL | 50% |  |
| B23 | 107% | 0.0425 µg/mL | 80% |  |
| B24 | 119% | 0.0978 µg/mL | 35% |  |
| B25 | 100% | 0.0775 µg/mL | 42% |  |
| B26 | 101% | 0.125 µg/mL | 26% |  |
| B27 | 119% | 0.108 µg/mL | 33% |  |
